Here are results for 9 molecules from patent publication US20240016952A1 (published 2024).

Positions count from the first letter of the chain named. Names and notes keep the numbering of the source.

First the molecules themselves.
B1: humanized anti-TfR Fab 3M12 VH3/Vk2 (Fab, V domains shown)
VH: QVQLQESGPGLVKPSQTLSLTCSVTGYSITSGYYWNWIRQPPGKGLEWMGYITFDGANNYNPSLKNRVSISRDTSKNQFSLKLSSVTAEDTATYYCTRSSYDYDVLDYWGQGTTVTVSS
VL: DIQMTQSPSSLSASVGDRVTITCRASQDISNFLNWYQQKPGQPVKLLIYYTSRLHSGVPSRFSGSGSGTDFTLTISSLQPEDFATYFCQQGHTLPYTFGQGTKLEIKR
B2: humanized anti-TfR Fab 3M12 VH3/Vk3 (Fab, V domains shown)
VH: B1 VH
VL: B1 VL with F87Y
B3: humanized anti-TfR Fab 3M12 VH4/Vk2 (Fab, V domains shown)
VH: B1 VH with S23T, M49I
VL: B1 VL
B4: humanized anti-TfR Fab 5H12 VH5 (C33Y)/Vk4 (Fab, V domains shown)
VH: QVQLVQSGAEVKKPGASVKVSCKASGYSFTDYYINWVRQAPGQGLEWMGWIYPGSGNTRYSERFKGRVTITRDTSASTAYMELSSLRSEDTAVYYCAREDYYPYHGMDYWGQGTLVTVSS
VL: DIVMTQSPDSLAVSLGERATINCRASESVDGYDNSFMHWYQQKPGQPPKLLIFRASNLESGVPDRFSGSGSGTDFTLTISSLQAEDVAVYYCQQSSEDPWTFGQGTKLEIKR
notes: also called 5H12 (VH4-C33Y/Vk4)
B5: humanized anti-TfR Fab 5H12 VH5 (C33Y)/Vk3 (Fab, V domains shown)
VH: B4 VH
VL: B4 VL with M4L, G72R
B6: humanized anti-TfR Fab 5H12 VH5 (C33D)/Vk4 (Fab, V domains shown)
VH: B4 VH with Y33D
VL: B4 VL
B7: humanized anti-TfR Fab 3A4 VH3 (N54T)/Vk4 (Fab, V domains shown)
VH: EVQLVQSGSELKKPGASVKVSCTASGFNIKDDYMYWVRQPPGKGLEWIGWIDPETGDTEYASKFQDRVTVTADTSTNTAYMELSSLRSEDTAVYYCTLWLRRGLDYWGQGTLVTVSS
VL: DIVMTQSPLSLPVTPGEPASISCRSSKSLLHSNGYTYLFWFQQRPGQSPRLLIYRMSNLASGVPDRFSGSGSGTDFTLKISRVEAEDVGVYYCMQHLEYPFTFGGGTKVEIKR
B8: humanized anti-TfR Fab 3M12 VH4/Vk3 conjugated to DMPK-targeting oligonucleotide ASO300 (Fab, V domains shown)
VH: B1 VH with S23T, M49I
VL: B1 VL with F87Y
modifications: Fab conjugated to oligonucleotide ASO300; chain and residue not stated
notes: Fab-oligonucleotide conjugate; The protein chains are those of the unconjugated Fab
B9: humanized anti-TfR Fab 5H12 VH5 (C33Y)/Vk3 conjugated to DMPK-targeting oligonucleotide ASO300 (Fab, V domains shown)
VH: B4 VH
VL: B4 VL with M4L, G72R
modifications: Fab conjugated to oligonucleotide ASO300; chain and residue not stated
notes: as for B8

T2 sequence (P02786 89-760 limits assumed): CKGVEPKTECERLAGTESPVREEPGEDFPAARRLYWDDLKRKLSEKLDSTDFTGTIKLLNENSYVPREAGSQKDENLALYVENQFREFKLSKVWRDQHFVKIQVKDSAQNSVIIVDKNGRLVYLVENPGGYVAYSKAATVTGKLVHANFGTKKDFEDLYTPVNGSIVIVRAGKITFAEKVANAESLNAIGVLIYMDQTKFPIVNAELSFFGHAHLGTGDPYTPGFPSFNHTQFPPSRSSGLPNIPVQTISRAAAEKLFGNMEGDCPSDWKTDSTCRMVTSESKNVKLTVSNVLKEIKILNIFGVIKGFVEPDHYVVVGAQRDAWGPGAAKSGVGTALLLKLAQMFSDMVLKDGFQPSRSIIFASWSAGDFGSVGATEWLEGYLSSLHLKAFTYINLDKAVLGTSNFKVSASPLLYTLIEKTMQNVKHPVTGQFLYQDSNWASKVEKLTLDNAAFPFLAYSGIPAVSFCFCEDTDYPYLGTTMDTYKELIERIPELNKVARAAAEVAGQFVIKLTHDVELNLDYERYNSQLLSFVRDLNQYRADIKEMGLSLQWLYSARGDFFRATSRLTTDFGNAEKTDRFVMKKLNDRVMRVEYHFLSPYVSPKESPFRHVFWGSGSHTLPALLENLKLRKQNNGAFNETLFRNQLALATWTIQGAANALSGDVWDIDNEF

The target in one assay is T1, cynomolgus monkey transferrin receptor 1 (cTfR1) (cynomolgus monkey (Macaca fascicularis), UniProt Q5RDH6 89-760 (Pongo abelii entry), limits assumed).
T1 construct: Recombinant cynomolgus TfR1; also called cyTfR1; cyno TfR1
T1 chain: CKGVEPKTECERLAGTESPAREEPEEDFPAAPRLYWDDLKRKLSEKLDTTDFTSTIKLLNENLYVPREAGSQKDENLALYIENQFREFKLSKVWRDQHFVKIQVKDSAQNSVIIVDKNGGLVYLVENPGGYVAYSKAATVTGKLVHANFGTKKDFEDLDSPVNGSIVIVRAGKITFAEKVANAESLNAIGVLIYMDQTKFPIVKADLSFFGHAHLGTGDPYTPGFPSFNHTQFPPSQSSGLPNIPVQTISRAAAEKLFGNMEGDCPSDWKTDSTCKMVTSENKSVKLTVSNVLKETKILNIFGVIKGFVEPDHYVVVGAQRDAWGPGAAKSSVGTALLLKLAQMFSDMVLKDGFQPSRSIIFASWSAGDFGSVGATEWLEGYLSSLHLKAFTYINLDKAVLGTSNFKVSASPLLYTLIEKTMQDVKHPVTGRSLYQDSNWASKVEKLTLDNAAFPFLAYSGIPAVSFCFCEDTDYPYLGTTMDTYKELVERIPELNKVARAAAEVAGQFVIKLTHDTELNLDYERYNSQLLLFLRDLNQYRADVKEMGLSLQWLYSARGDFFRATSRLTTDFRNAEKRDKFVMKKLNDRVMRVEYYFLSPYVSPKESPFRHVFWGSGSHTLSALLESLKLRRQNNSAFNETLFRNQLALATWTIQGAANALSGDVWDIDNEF
The experiment in a line: ELISA, cyno TfR1, Fab, day 0 of thermal stability test.
As for B1, the “Binding affinity cyno TfR1 d 0” value is 9.9 nM.

For B2, the “Binding affinity cyno TfR1 d 0” value stood at 4.7 nM.

Turning to B3, the “Binding affinity cyno TfR1 d 0” value is 1.4 nM.

Turning to B4, the “Binding affinity cyno TfR1 d 0” value came out at 3.3 nM.

Regarding B5, the “Binding affinity cyno TfR1 d 0” value stood at 2.1 nM.

B6: the “Binding affinity cyno TfR1 d 0” value stood at 3.5 nM.

Take B7: the “Binding affinity cyno TfR1 d 0” value stood at 156 nM.

The next assay deals with T1, cynomolgus monkey transferrin receptor …. The experiment in a line: ELISA, cyno TfR1, Fab-ASO300 conjugate.
Consider B8, for which the “DMPK oligo conjugate binding to cyno TfR1” value turned out to be 1.85 nM.

The next assay shares this target. The experiment in a line: ELISA, cyno TfR1, Fab after 9 days at 40 C.
For the molecule B1, the “Binding affinity cyno TfR1 d 9” value worked out at 19.5 nM.

As to B2, the “Binding affinity cyno TfR1 d 9” value was 15.6 nM.

For the molecule B3, the “Binding affinity cyno TfR1 d 9” value turned out to be 5.01 nM.

Regarding B4, the “Binding affinity cyno TfR1 d 9” value was 0.26 nM.

Take B5: the “Binding affinity cyno TfR1 d 9” value is 0.69 nM.

Take B6: the “Binding affinity cyno TfR1 d 9” value is 0.63 nM.

As to B7, the “Binding affinity cyno TfR1 d 9” value stood at 128 nM.

For another assay the target is unchanged. The experiment in a line: ELISA on plate-coated cyno TfR1, unconjugated Fab.
As to B1, the “Fab binding affinity ELISA” value came to 9.9 nM.

As to B2, the “Fab binding affinity ELISA” value is 4.7 nM.

As to B3, the “Fab binding affinity ELISA” value was 1.4 nM.

B4: the “Fab binding affinity ELISA” value was 3.3 nM.

On to B5, for which the “Fab binding affinity ELISA” value was 2.1 nM.

For B6, the “Fab binding affinity ELISA” value is 3.5 nM.

Turning to B7, the “Fab binding affinity ELISA” value worked out at 156 nM.

Another assay has as its target T2, human transferrin receptor 1 (hTfR1) (human, UniProt P02786 89-760).
T2 construct: Recombinant human TfR1; also called huTfR1; Human TfR1
The experiment in a line: ELISA on plate-coated human TfR1, Fab-ASO300 conjugate.
Regarding B8, the “Conjugate binding affinity ELISA” value came to 1.7 nM.

For the molecule B9, the “Conjugate binding affinity ELISA” value came out at 33.4 nM.

For another assay, the target named is T1, cynomolgus monkey transferrin receptor …. The experiment in a line: ELISA on plate-coated cyno TfR1, Fab-ASO300 conjugate.
Turning to B8, the “Conjugate binding affinity ELISA” value stood at 2.1 nM.

For the molecule B9, the “Conjugate binding affinity ELISA” value turned out to be 2.3 nM.
